Among the data in article PMC2785850 are β-gal activity (nmol ONP / min 10^7 cells) and Kd values, retold here.

Assay [1] deals with LexA-Trx1 fusion protein (UniProt P22217). The assay can be described thus: yeast one-hybrid interaction assay.
For assay [2], the target named is histidine-tagged human thioredoxin (human) (UniProt P10599). Nature of the assay: pull-down.
UniProt P10599, sequence (P10599 whole entry): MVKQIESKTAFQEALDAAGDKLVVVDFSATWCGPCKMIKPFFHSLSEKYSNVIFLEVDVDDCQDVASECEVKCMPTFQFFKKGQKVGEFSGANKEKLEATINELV

UniProt P22217, sequence (P22217 2-103): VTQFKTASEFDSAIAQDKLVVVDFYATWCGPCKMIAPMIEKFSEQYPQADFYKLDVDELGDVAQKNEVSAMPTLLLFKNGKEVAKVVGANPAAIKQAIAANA

In turn, “human p53 expressed in yeast from pRS415-p53 (from UniProt P04637 1-393) (natural protein)” returned a β-gal activity (nmol ONP / min 10^7 cells) in assay [1] of 6.56.
As for “purified baculovirus-expressed human p53 (from UniProt P04637 1-393) (natural protein)”, the Kd in assay [2] amounted to 940 nM. This lies in the sub-micromolar range.

The Kd is the equilibrium constant for the complex coming apart. A low value points to tighter binding.
